Assay [1] concerns the target β-catenin (endogenous, CHO cells) (Chinese hamster (endogenous in CHO)) (UniProt G3H996). As to the kind of experiment: co-IP.
For assay [2] the target is unchanged. As to the kind of experiment: co-IP. This is another data set of the same source.

Read-outs that look alike come from different tables or passages of the source.

These results are taken from paper PMC2874908.

For the substance “dynein (microtubule motor protein; endogenous, CHO cells) (complex)”, the fold change of dynein with β-catenin, V13 cells against E-cadherin cells in assay [1] was 3 fold; in assay [2], 2 to 2.5 fold.
